Experimental data taken from publication PMC4757414, “Evidences of Changes in Surface Electrostatic Charge Distribution during Stabilization of HPV16 Virus-Like Particles” (PLoS ONE, 2016).

Target: the molecule itself
Experiment: static light scattering; Debye plot (Zimm equation) of purified HPV16 VLPs in dilute solution, initial (0 h) and final (48 h) states; T = 298 K; 0.5 M NaCl, 50 mM sodium citrate, 1 mM CaCl2, pH 6

B1: HPV16 L1 protein (assembled into HPV16 virus-like particles) (natural protein)
chain: MSLWLPSEATVYLPPVPVSKVVSTDEYVARTNIYYHAGTSRLLAVGHPYFPIKKPNNNKILVPKVSGLQYRVFRIHLPDPNKFGFPDTSFYNPDTQRLVWACVGVEVGRGQPLGVGISGHPLLNKLDDTENASAYAANAGVDNRECISMDYKQTQLCLIGCKPPIGEHWGKGSPCTNVAVNPGDCPPLELINTVIQDGDMVDTGFGAMDFTTLQANKSEVPLDICTSICKYPDYIKMVSEPYGDSLFFYLRREQMFVRHLFNRAGAVGENVPDDLYIKGSGSTANLASSNYFPTPSGSMVTSDAQIFNKPYWLQRAQGHNNGICWGNQLFVTVVDTTRSTNMSLCAAISTSETTYKNTNFKEYLRHGEEYDLQFIFQLCKITLTADVMTYIHSMNSTILEDWNFGLQPPPGGTLEDTYRFVTSQAIACQKHTPPAPKEDPLKKYTFWEVNLKEKFSADLDQFPLGRKFLLQAGLKAKPKFTLGKRKATPTTSSTSTTAKRKKRKL
notes: major capsid protein L1 (~55 kDa) of human papillomavirus type 16; also called HPV L1; HPV16 VLPs; source: insect cells infected with HPV L1 expressing baculovirus, purified (chromatography and filtration, at least 95% purity); provided by Sino Biological, Inc
B1: binds.
